Data as given in PMC10786891, “Massively parallel profiling of RNA-targeting CRISPR-Cas13d”.

T1: EsCas13d, nuclease-dead (Eubacterium siraeum, UniProt B0MS50, R295A;H300A;R849A;H854A)
T1 sequence: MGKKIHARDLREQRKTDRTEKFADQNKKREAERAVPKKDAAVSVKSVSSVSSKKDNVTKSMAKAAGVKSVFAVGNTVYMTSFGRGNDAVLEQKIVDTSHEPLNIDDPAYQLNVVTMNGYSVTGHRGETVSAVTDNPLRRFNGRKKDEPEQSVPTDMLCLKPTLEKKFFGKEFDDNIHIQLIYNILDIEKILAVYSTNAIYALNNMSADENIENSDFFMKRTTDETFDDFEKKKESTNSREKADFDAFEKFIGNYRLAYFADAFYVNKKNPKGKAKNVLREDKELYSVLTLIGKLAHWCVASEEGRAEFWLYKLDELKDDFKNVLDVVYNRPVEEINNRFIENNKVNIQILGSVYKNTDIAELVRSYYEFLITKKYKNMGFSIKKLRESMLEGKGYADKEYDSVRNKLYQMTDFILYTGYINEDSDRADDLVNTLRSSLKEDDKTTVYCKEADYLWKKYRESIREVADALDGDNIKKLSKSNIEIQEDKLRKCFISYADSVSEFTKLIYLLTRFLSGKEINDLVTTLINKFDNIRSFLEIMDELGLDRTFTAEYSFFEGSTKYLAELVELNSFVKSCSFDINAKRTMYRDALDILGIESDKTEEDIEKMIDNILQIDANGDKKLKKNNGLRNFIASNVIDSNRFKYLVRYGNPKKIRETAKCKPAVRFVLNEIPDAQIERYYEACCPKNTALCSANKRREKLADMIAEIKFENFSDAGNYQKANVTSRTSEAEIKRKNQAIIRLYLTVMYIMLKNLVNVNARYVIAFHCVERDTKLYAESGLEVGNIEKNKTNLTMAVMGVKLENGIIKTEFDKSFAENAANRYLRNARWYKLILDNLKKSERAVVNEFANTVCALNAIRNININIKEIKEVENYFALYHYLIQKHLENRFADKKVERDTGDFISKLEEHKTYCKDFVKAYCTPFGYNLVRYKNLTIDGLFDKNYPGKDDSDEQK


Target: T1, EsCas13d, nuclease-dead
Experiment: crRNA (strand 1, pre-loaded); Mg2+; 40 mM Tris-HCl pH 7.5, 150 mM NaCl, 6 mM MgCl2, 1 mM DTT, 0.1% Tween-20, 0.2 mg/ml BSA; 25 C; 10 min per concentration, then washed
Details: tags: His6-TwinStrep-SUMO cleaved; N-terminal SNAP kept (SNAP-Surface 488); label: 3' end held by stalled T7 RNA polymerase

Binder | Kd
target 3 del3,del4 (mixed) RNA 1: CACCCGUGCAAAAUUGCAGGGGUCUAAAACGACCUGAAUAUUUCAGAUCAAA RNA 2: GGGAAUGGAUCCACAUCUACGAAUUCGUUUUUGAUCUGAAAUAUUCAUCUGCAGAUCGGAAGAGCACACGU | 13.9 ± 1.4 nM
target 3 G4A,A9G (mixed) RNA 1: CACCCGUGCAAAAUUGCAGGGGUCUAAAACGACCUGAAUAUUUCAGAUCAAA RNA 2: GGGAAUGGAUCCACAUCUACGAAUUCGUUUUUGAUCUGAAAUGUUCAAGUCUGCAGAUCGGAAGAGCACACGU | 52.5 ± 7 nM
target 3 A5G,U8A (mixed) RNA 1: CACCCGUGCAAAAUUGCAGGGGUCUAAAACGACCUGAAUAUUUCAGAUCAAA RNA 2: GGGAAUGGAUCCACAUCUACGAAUUCGUUUUUGAUCUGAAAUAAUCGGGUCUGCAGAUCGGAAGAGCACACGU | 80.5 ± 15 nM
target 3 U2C,G4C (mixed) RNA 1: CACCCGUGCAAAAUUGCAGGGGUCUAAAACGACCUGAAUAUUUCAGAUCAAA RNA 2: GGGAAUGGAUCCACAUCUACGAAUUCGUUUUUGAUCUGAAAUAUUCACGCCUGCAGAUCGGAAGAGCACACGU | 18.4 ± 2.75 nM
target 3 insU 3' of 22,insU 3' of 6 (mixed) RNA 1: CACCCGUGCAAAAUUGCAGGGGUCUAAAACGACCUGAAUAUUUCAGAUCAAA RNA 2: GGGAAUGGAUCCACAUCUACGAAUUCGUUUUUUGAUCUGAAAUAUUCUAGGUCUGCAGAUCGGAAGAGCACACGU | 27.5 ± 3.7 nM
target 3 insU 3' of 11,insG 3' of 5 (mixed) RNA 1: CACCCGUGCAAAAUUGCAGGGGUCUAAAACGACCUGAAUAUUUCAGAUCAAA RNA 2: GGGAAUGGAUCCACAUCUACGAAUUCGUUUUUGAUCUGAAAUUAUUCAGGGUCUGCAGAUCGGAAGAGCACACGU | 104 ± 29 nM
target 3 C1A,U7C (mixed) RNA 1: CACCCGUGCAAAAUUGCAGGGGUCUAAAACGACCUGAAUAUUUCAGAUCAAA RNA 2: GGGAAUGGAUCCACAUCUACGAAUUCGUUUUUGAUCUGAAAUAUCCAGGUAUGCAGAUCGGAAGAGCACACGU | 100 ± 40 nM
target 1 U3A,U11C (mixed) RNA 1: CACCCGUGCAAAAAUGCAGGGGUCUAAAACUGAGCGGAUAACCUCUCUAUGG RNA 2: GGGAAUGGAUCCACAUCUACGAAUUCGUACCAUAGAGAGGCUAUCCGCACACCGAGAUCGGAAGAGCACACGU | 10.3 ± 1.2 nM
target 1 G12U,A18U (mixed) RNA 1: CACCCGUGCAAAAAUGCAGGGGUCUAAAACUGAGCGGAUAACCUCUCUAUGG RNA 2: GGGAAUGGAUCCACAUCUACGAAUUCGUACCAUUGAGAGUUUAUCCGCUCACCGAGAUCGGAAGAGCACACGU | 44 ± 10 nM
target 3 U7C (mixed) RNA 1: CACCCGUGCAAAAUUGCAGGGGUCUAAAACGACCUGAAUAUUUCAGAUCAAA RNA 2: GGGAAUGGAUCCACAUCUACGAAUUCGUUUUUGAUCUGAAAUAUCCAGGUCUGCAGAUCGGAAGAGCACACGU | 56 ± 7 nM
target 3 insU 3' of 5,insA 3' of 4 (mixed) RNA 1: CACCCGUGCAAAAUUGCAGGGGUCUAAAACGACCUGAAUAUUUCAGAUCAAA RNA 2: GGGAAUGGAUCCACAUCUACGAAUUCGUUUUUGAUCUGAAAUAUUCAUGAGUCUGCAGAUCGGAAGAGCACACGU | 9.9 ± 1.8 nM
target 3 U2C,U8G (mixed) RNA 1: CACCCGUGCAAAAUUGCAGGGGUCUAAAACGACCUGAAUAUUUCAGAUCAAA RNA 2: GGGAAUGGAUCCACAUCUACGAAUUCGUUUUUGAUCUGAAAUAGUCAGGCCUGCAGAUCGGAAGAGCACACGU | 95.5 ± 20.5 nM
target 3 insU 3' of 16,insG 3' of 2 (mixed) RNA 1: CACCCGUGCAAAAUUGCAGGGGUCUAAAACGACCUGAAUAUUUCAGAUCAAA RNA 2: GGGAAUGGAUCCACAUCUACGAAUUCGUUUUUGAUCUUGAAAUAUUCAGGUGCUGCAGAUCGGAAGAGCACACGU | 16.1 ± 1.9 nM
target 3 insA 3' of 15,insU 3' of 3 (mixed) RNA 1: CACCCGUGCAAAAUUGCAGGGGUCUAAAACGACCUGAAUAUUUCAGAUCAAA RNA 2: GGGAAUGGAUCCACAUCUACGAAUUCGUUUUUGAUCUAGAAAUAUUCAGGUUCUGCAGAUCGGAAGAGCACACGU | 59.5 ± 12.5 nM
target 3 insA 3' of 21,insC 3' of 3 (mixed) RNA 1: CACCCGUGCAAAAUUGCAGGGGUCUAAAACGACCUGAAUAUUUCAGAUCAAA RNA 2: GGGAAUGGAUCCACAUCUACGAAUUCGUUUUAUGAUCUGAAAUAUUCAGGCUCUGCAGAUCGGAAGAGCACACGU | 35 ± 5 nM
target 3 C6G,U7A (mixed) RNA 1: CACCCGUGCAAAAUUGCAGGGGUCUAAAACGACCUGAAUAUUUCAGAUCAAA RNA 2: GGGAAUGGAUCCACAUCUACGAAUUCGUUUUUGAUCUGAAAUAUAGAGGUCUGCAGAUCGGAAGAGCACACGU | 48.5 ± 5.5 nM
target 3 C16U,U22A (mixed) RNA 1: CACCCGUGCAAAAUUGCAGGGGUCUAAAACGACCUGAAUAUUUCAGAUCAAA RNA 2: GGGAAUGGAUCCACAUCUACGAAUUCGUUAUUGAUUUGAAAUAUUCAGGUCUGCAGAUCGGAAGAGCACACGU | 70 ± 11 nM
target 3 C1G,A5U (mixed) RNA 1: CACCCGUGCAAAAUUGCAGGGGUCUAAAACGACCUGAAUAUUUCAGAUCAAA RNA 2: GGGAAUGGAUCCACAUCUACGAAUUCGUUUUUGAUCUGAAAUAUUCUGGUGUGCAGAUCGGAAGAGCACACGU | 10.1 ± 1.55 nM
target 3 insC 3' of 15,insC 3' of 11 (mixed) RNA 1: CACCCGUGCAAAAUUGCAGGGGUCUAAAACGACCUGAAUAUUUCAGAUCAAA RNA 2: GGGAAUGGAUCCACAUCUACGAAUUCGUUUUUGAUCUCGAAACUAUUCAGGUCUGCAGAUCGGAAGAGCACACGU | 46 ± 4 nM
target 1 G15U,G17A (mixed) RNA 1: CACCCGUGCAAAAAUGCAGGGGUCUAAAACUGAGCGGAUAACCUCUCUAUGG RNA 2: GGGAAUGGAUCCACAUCUACGAAUUCGUACCAUAAAUAGGUUAUCCGCUCACCGAGAUCGGAAGAGCACACGU | 53 ± 5 nM
target 3 insU 3' of 22,insC 3' of 22 (mixed) RNA 1: CACCCGUGCAAAAUUGCAGGGGUCUAAAACGACCUGAAUAUUUCAGAUCAAA RNA 2: GGGAAUGGAUCCACAUCUACGAAUUCGUUUUCUUGAUCUGAAAUAUUCAGGUCUGCAGAUCGGAAGAGCACACGU | 39.5 ± 6 nM
target 3 insC 3' of 13,insA 3' of 2 (mixed) RNA 1: CACCCGUGCAAAAUUGCAGGGGUCUAAAACGACCUGAAUAUUUCAGAUCAAA RNA 2: GGGAAUGGAUCCACAUCUACGAAUUCGUUUUUGAUCUGACAAUAUUCAGGUACUGCAGAUCGGAAGAGCACACGU | 70 ± 13 nM
target 3 insU 3' of 9,insG 3' of 7 (mixed) RNA 1: CACCCGUGCAAAAUUGCAGGGGUCUAAAACGACCUGAAUAUUUCAGAUCAAA RNA 2: GGGAAUGGAUCCACAUCUACGAAUUCGUUUUUGAUCUGAAAUAUUUGCAGGUCUGCAGAUCGGAAGAGCACACGU | 84.5 ± 18.5 nM
target 3 insG 3' of 5,insA 3' of 2 (mixed) RNA 1: CACCCGUGCAAAAUUGCAGGGGUCUAAAACGACCUGAAUAUUUCAGAUCAAA RNA 2: GGGAAUGGAUCCACAUCUACGAAUUCGUUUUUGAUCUGAAAUAUUCAGGGUACUGCAGAUCGGAAGAGCACACGU | 39 ± 6 nM
target 3 insG 3' of 8,insG 3' of 6 (mixed) RNA 1: CACCCGUGCAAAAUUGCAGGGGUCUAAAACGACCUGAAUAUUUCAGAUCAAA RNA 2: GGGAAUGGAUCCACAUCUACGAAUUCGUUUUUGAUCUGAAAUAUGUCGAGGUCUGCAGAUCGGAAGAGCACACGU | 31.6 ± 2.7 nM
target 3 insC 3' of 9,insU 3' of 5 (mixed) RNA 1: CACCCGUGCAAAAUUGCAGGGGUCUAAAACGACCUGAAUAUUUCAGAUCAAA RNA 2: GGGAAUGGAUCCACAUCUACGAAUUCGUUUUUGAUCUGAAAUACUUCAUGGUCUGCAGAUCGGAAGAGCACACGU | 76.5 ± 12.5 nM
target 3 insC 3' of 7,insA 3' of 3 (mixed) RNA 1: CACCCGUGCAAAAUUGCAGGGGUCUAAAACGACCUGAAUAUUUCAGAUCAAA RNA 2: GGGAAUGGAUCCACAUCUACGAAUUCGUUUUUGAUCUGAAAUAUUCCAGGAUCUGCAGAUCGGAAGAGCACACGU | 68 ± 14 nM
target 3 insC 3' of 9,insC 3' of 3 (mixed) RNA 1: CACCCGUGCAAAAUUGCAGGGGUCUAAAACGACCUGAAUAUUUCAGAUCAAA RNA 2: GGGAAUGGAUCCACAUCUACGAAUUCGUUUUUGAUCUGAAAUACUUCAGGCUCUGCAGAUCGGAAGAGCACACGU | 88 ± 24.5 nM
